We go through one molecule from patent publication US12291578B2, “Anti-matrix metalloproteinase 7 (MMP-7) inhibitory antibody and uses thereof” (Yeda Research and Development Co. Ltd., priority 2019, dated 2025).

One series deals with T1, MMP-7 zymogen (Homo sapiens, UniProt P09237).
T1 sequence (P09237 18-267 limits assumed): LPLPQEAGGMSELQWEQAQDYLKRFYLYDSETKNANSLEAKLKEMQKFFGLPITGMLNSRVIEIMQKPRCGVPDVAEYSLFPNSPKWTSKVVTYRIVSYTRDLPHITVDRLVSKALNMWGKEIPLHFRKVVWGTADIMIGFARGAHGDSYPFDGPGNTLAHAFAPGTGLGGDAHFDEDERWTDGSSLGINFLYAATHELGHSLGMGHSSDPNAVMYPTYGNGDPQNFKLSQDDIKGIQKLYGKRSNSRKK
The series is described as follows: Dot blot, zymogen. The class given is binding. Here is the method:
(§1) A dot blot was performed by immobilizing 1, 1.5 and 2 μg zymogen and activated MMP-7 recombinant enzyme on nitrocellulose membrane pre wetted with TBST using a vacuum based manifold 96 well dot-blot system (GE 10447900 Minifold dot blot). The blocking was performed for 1 hour at room temperature with 3% BSA in TBST. The membrane was then probed for binding by antibody eluted in the earlier step by incubating overnight. The anti MMP-7 mAb used was at 2 ug/ml concentration in TBST. The membrane after 3 washes in TBST was incubated with goat anti mouse HRP antibody and developed using ECL to determine the selectivity of binding towards catalytic form only.

The target in series [1] is T2, MMP-9 (Homo sapiens, UniProt P14780). In words: Enzymatic activity of related MMPs (fluorogenic peptide). It is filed as biochemical. As to conditions: in vitro. Here is the method:
(§2) MMP-7 enzymatic kinetic assay: The enzymatic activity of MMP-7 in the presence of GSM-192 Fab was measured at 37° C. by monitoring the hydrolysis of fluorogenic peptide Mca-Pro-Leu-Gly-Leu-Dpa-Ala-Arg-NH2 (SEQ ID NO: 10) at λex=340 nm and […] as described previously^30. A range of different concentrations of GSM-192 Fab (0-200 nM) were incubated with 10 nM of MMP-7 in 50 mM Tris-HCl buffer (pH 7.5 at 37° C.), 100 mM NaCl, 5 mM CaCl2, and 0.05% Brij-35 for 2 h at 37° C. The enzymatic reaction was initiated by addition of the fluorogenic peptide to a final concentration of 10 μM. Fluorescence was recorded immediately and continuously for 30 min.
(§3) Remarkably, considering that the immunization booster also included the common zinc motif, the antibody is fully selective for MMP-7. The effect of GSM-192 Fab fragment on the enzymatic activity of human MMP-7 was examined in vitro using a short fluorogenic peptide according to a standard protocol. The enzymatic activity of recombinant active MMP-7 was measured in the presence of increasing concentrations of the Fab fragment of GSM-192. […] Simultaneously the effect of the antibody on catalytic activity of related MMPs was measured.

In series [2] the target is T3, MMP-14 (Homo sapiens, UniProt P50281). The series is described as above. It is filed as biochemical. As to conditions: in vitro. Here is the method: as §2, §3
For series [3], the target named is T4, MMP-12 (Homo sapiens, UniProt P39900). The description is as above. The class given is biochemical. The note with it: in vitro. Here is the method:
as §2, §3

For series [4], the target named is T2, MMP-9. In words: ELISA binding, cross-reactivity. In general terms: ELISA stands for enzyme-linked immunosorbent assay.
The target in a further series is MMP-13 (Homo sapiens, UniProt P45452). The series is described as follows: ELISA binding, cross-reactivity.
For series [5], the target named is T3, MMP-14. The series is described as follows: ELISA binding, cross-reactivity.
The target in series [6] is T4, MMP-12. The series is described as follows: ELISA binding, cross-reactivity.
In series [7] the test system is RIP1-Tag2 insulinoma (PanNET) model. In words: Late stage treatment in RIP1-Tag2 (PanNET) mice. The class given is in vivo, mouse. As to conditions: age 10 to 12 weeks, 5 mg/kg every other day IP. An excerpt:
(§4) RIP1-Tag2: The RIP1Tag2 (RT2) murine PanNET model was developed by the fusion of Rat Insulin II promoter region to the SV40 early region that encodes the large T and small t antigens. Although oncogene expression begins during embryonic development (E8.5), the pancreatic islets initially have a normal anatomical and histological appearance (“normal” stage). Beginning at 4-5 weeks of age, hyperplastic and dysplastic islets begin to appear, rending 50% of all islets by 10 weeks of age. Angiogenic islets appear beginning around 6 weeks of age, and represent 10% of all islets at 10.5 weeks. Angiogenic islets are recognized by their dilated blood vessels and micro-hemorrhages. Tumors form beginning at 9-10 weeks and represent 2-4% of all the islets by 14 weeks. About half of the tumors at end stage evidence either focal or widespread invasion to the surrounding acinar tissue. RIP-Tag2 mice die at approximately 14 weeks of age primarily due to hyperinsulinemia.
The tumor volume was measured using x, y and z dimensions from a caliper scale.

The test system of another series is panel of other MMPs. The series is described as follows: ELISA binding, panel of other MMPs. As to the method:
MMP-7 Elisa binding assay: A 96-well plate (Nunc) was coated with MMP at […]. After coating, the plate was incubated with the GSM-192 at 25° C. for 1 h. The bound Fab fragment/full length was detected using a goat anti-Fab/anti-mouse antibody followed by peroxidase-conjugated bovine anti-goat antibody according to standard procedures. A four-parametric sigmoidal curve-fitting analysis was used to calculate the half-maximal effective concentration.

In series [8] the test system is RIP1-Tag2 insulinoma (PanNET) model. In words: Early stage treatment in RIP1-Tag2 (PanNET) mice. The note with it: 3 mg/kg every day IP; for area covered by CD34+ cells: islets undergoing angiogenesis. The class given is in vivo, mouse.
Excerpt: as §4
GSM-192 treatment reduces occurrence of advanced tumor lesions in RIP1-Tag2 (PanNET) mice in early stage treatments: RIP1-Tag2 mice (n=15) in transition stage from hyperplastic to angiogenic stage spanning 6 to 8 weeks of age were treated with GSM-192 and GST control antibody at a concentration of 3 mg/kg every day intra peritoneal (IP). Animals at age 8 weeks post treatment was sacrificed and their pancreas was embedded in paraffin blocks and sectioned. Several sections in different depth in the tissue were made for subsequent histological analysis or immunofluorescence staining. Tumor sizes and staging was done in accordance with RIP1-Tag2 manual. […] As previously observed in in-vitro cell culture, the tissue was tested for differences in cell proliferation rate (with cell division marker Ki-67) and in cell apoptosis rate (with effector apoptotic marker Caspase-3).

Series [9] has as its target T5, activated MMP-7 recombinant enzyme (Homo sapiens, UniProt P09237).
T5 sequence (P09237 95-267): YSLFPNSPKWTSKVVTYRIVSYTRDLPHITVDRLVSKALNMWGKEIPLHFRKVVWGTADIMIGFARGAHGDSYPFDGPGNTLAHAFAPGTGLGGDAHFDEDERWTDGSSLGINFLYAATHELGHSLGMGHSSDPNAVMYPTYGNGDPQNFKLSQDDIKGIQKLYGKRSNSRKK
The series is described as follows: Dot blot, activated enzyme. As to conditions: different concentrations of enzyme. It is filed as binding. Here is the method: as §1

Setting [10] is: 6 to 8 weeks of age, listed as anti MMP-7 mAb.

Entries after “also recorded” stand apart in the source; their conditions may differ.

T4 sequence (P39900 106-470): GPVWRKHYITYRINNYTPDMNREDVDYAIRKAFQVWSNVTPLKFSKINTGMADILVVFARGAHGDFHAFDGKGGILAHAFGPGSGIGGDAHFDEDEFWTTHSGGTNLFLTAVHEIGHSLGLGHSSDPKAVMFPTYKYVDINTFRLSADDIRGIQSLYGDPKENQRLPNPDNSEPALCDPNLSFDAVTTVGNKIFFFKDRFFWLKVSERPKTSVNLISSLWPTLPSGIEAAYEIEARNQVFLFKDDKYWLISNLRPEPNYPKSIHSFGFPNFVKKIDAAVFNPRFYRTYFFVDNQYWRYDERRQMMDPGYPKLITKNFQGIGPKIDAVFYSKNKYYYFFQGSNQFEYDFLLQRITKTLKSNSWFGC
T2 sequence (P14780 94-707, species assumed): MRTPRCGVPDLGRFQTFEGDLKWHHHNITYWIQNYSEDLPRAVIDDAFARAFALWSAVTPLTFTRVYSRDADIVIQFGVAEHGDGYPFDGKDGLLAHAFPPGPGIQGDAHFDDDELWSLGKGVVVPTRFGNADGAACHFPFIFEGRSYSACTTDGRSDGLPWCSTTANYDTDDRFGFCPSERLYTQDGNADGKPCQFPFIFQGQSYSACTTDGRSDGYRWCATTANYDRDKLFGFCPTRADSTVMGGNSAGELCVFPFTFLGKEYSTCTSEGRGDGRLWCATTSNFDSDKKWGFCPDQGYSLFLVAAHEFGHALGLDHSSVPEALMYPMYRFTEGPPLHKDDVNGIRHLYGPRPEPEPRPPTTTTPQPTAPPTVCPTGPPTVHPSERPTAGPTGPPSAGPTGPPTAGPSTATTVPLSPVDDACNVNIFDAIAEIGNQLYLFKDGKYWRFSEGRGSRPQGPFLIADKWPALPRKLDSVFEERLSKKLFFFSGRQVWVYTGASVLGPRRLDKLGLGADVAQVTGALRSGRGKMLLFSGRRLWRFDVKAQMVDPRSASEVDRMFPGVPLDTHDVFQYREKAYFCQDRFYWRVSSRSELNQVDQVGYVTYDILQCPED

B1: GSM-192: monoclonal antibody to MMP-7 binding the catalytic domain, not the zymogen; VL SEQ ID NO: 1, VH SEQ ID NO: 2 (antibody, V domains shown)
VH: EVQLQQSGPELVKPGASVKIPCKASGYTFTDYNMDWMKQSHGKSLEWIGHINPNNGGTFYNQKFKDKATFIVDKSSNTAYMELRSLTSEDTAVYFCARGGGLRRGPFAYWGQGTLVTVS
VL: DIVTQSPASLAVSLGQRATISCRASESFDSYGNTFVHWYQQKPGQPPKLLIYLVSNLESGVPAGFRGRGSRTDFTLTIDPVEADDAATYYCQQNNEDPYTFGGGTKLEIKRA
modifications: GSM-192 Heavy Chain Sequence; GSM-192 Light Chain Sequence
With B1, the “binding to zymogen form of MMP-7” value with MMP-7 zymogen is given as “not the zymogen form; also recorded: did not bind”. The “effect on catalytic activity of MMP-9” value with MMP-9 [1] is “negligible or no effect”. The “effect on catalytic activity of MMP-14” value with MMP-14 [2] is “negligible or no effect”. In the series with MMP-12 [3], the “effect on catalytic activity of MMP-12” value is “negligible or no effect”. Further, the “crossreactivity to MMP-9” value with MMP-9 [4] was “did not show crossreactivity”. Besides, in the series with MMP-13, the “crossreactivity to MMP-13” value was “did not show crossreactivity”. Also, the “crossreactivity to MMP-14” value with MMP-14 [5] is given as “did not show crossreactivity”. Moreover, in the series with MMP-12 [6], the “crossreactivity to MMP-12” value is “did not show crossreactivity”. In addition, the “tumor volume relative to control group” value in series [7] is “less than half”. Further, in the series with panel of other MMPs, the “binding to a panel of other MMPs” value is listed as “did not bind effectively”. Further, the “number of Caspase-3 positive cells (apoptosis)” value in series [8] (6 to 8 weeks of age) is on record as “No significant change”; in series [8] (setting [10]), “does not show significant difference”. In addition, the entries for the “number of Ki-67 positive cells (cell proliferation)” value in series [8] (6 to 8 weeks of age) and in series [8] (setting [10]) were “No significant change” and “does not show significant difference”, respectively. Further, the “number of angiogenic islets / fraction of islets advancing to post angiogenic lesions” value in series [8] (6 to 8 weeks of age, vs GST control antibody) is given as “reduced almost by half; also recorded: half of the total seen in control mice”. Also, the “area covered by CD34+ cells” value is given as “less abundant” in series [8] and “reduces the area covered by CD34+ cells” in series [8] (listed as anti MMP-7 mAb). Further, the results for the “binding to activated form of MMP-7” value in series [9] and in series [9] (listed as anti MMP-7 Ab) were “bound to the catalytic domain” and “selective binding”, respectively.
